Results on 16 sequences are retold here after the DeepSol protein solubility set.

The nature of the data set: soluble on expression in E. coli; label from the status in PepcDB or PDB records.
Consider “MITVFHSDKLTRQPFFQDLINYLDQHDHVILREIKKAFPNVTGIDKAIESYVQAGYIRRENKRYGINLPLVSSDQQLALDTMLFVDTCSAMYENILAVVFETQLTNQTNRVMIKEKTNITRDDLTLANYFYRLKRGEKPSAEQMDLYDLLGDVNQEYALKYMTTFLLKFTRKDFVMQKRPDIFVEALVTLGYLKQVEPTTYQLLMTLDKESLTFIAP”, for which the “soluble on expression in E. coli” value was “not soluble”. In the case of “MIVETMTYQEIADEFKKDWERSIRHKITDCFGMANKYRRYILKEGKTDKWIRFKPIEFTSPRGNNCVIQFVSKGWADYKRNGLIFVLYMYYYKSEGLYAVMIAGDNFDEFSFYTPHLFDRYRERKLKDISKPKLQTMFDFFKTNATSRFNRVNNDKYANSIFSVCPNGVTLGSEISDKIIENRTYITFEMLKSDQVQDEEKLGTALKAYLDKQL”, the “soluble on expression in E. coli” value is “not soluble”. Turning to “MIVIFVDFDYFFAQVEEVLNPQYKGKPLVVCVYSGRTKTSGAVATANYEARKLGVKAGMPIIKAMQIAPSAIYVPMRKPIYEAFSNRIMNLLNKHADKIEVASIDEAYLDVTNKVEGNFENGIELARKIKQEILEKEKITVTVGVAPNKILAKIIADKSKPNGLGVIRPTEVQDFLNELDIDEIPGIGSVLARRLNELGIQKLRDILSKNYNELEKITGKAKALYLLKLAQNKYSEPVENKSKIPHGRYLTLPYNTRDVKVILPYLKKAINEAYNKVNGIPMRITVIAIMEDLDILSKGKKFKHGISIDNAYKVAEDLLRELLVRDKRRNVRRIGVKLDNIIINKTNLSDFFDI”, the “soluble on expression in E. coli” value is “soluble”. Consider “MIVLRDVAGSDESMYQALQSDLDLTDYLSRFCPYNSSVANYDTSKVCWFIIEEDTNCIGSIWLERDAQEPDTVILGIFISGKNSRGRGIGSYAIREAIRISKQRMPFRYVRLNVRRNNLRAIRCYEKCGFKVCGEGQKNAKNGAIIDYYRMIMKVED”, for which the “soluble on expression in E. coli” value is on record as “soluble”. Consider “MIYAAEEVRARFARRGLSFDPTVEEIVRGILEAVREEGDEALDRFSRDLDGYPVEEVPKRAWREAYEDLDEDLRDALETARERIEAFYREEARGGFLRAEGGGVLAQLVRPLERVGVYVPGGSAPLLSTLLMTVVPAKVAGVREVIVASPPKVHPGVLAAAWVAGADRLFAMGGAQAIAALAYGTGRVPRVDKIVGPGNRYVVAAKRLVYGTVGIDGLAGPTETMIIADGSASPRLLAADLLAQAEHGPDSEPWLLSPDRALLERVEAELSWQLQDLPRAEVARQALEKGGLVLTKDLEEAFALANLYAPEHLSLALSDPLPWLEKVQNAGGVFLGEGSPEALGDYIAGPSHVMPTSGTARFQGGLAVRDFLKVIPVVGLSEGAARELAKKGALLARAEGLEGHARSLDLRR”, for which the “soluble on expression in E. coli” value is “soluble”.

As to “MIYAYIRVSTDKQTVENQRFEINRFAKQRDFQIDVWVEETVSGTRSAKDRKLGVLLKRIKKGDTLIVSEISRLGRRLMEVMSILNACMLKNVILLTVKEKYELGNNIQSQILAFAFSLSAQIERDLISQRTREGLARRIASGQKLGRPMGGHNSKYKLTGKEEKIKAMLEAGTSKAEMARKLKVSRNTLAAFLNRNRTGIPSN”, the “soluble on expression in E. coli” value is on record as “not soluble”. As for “MIYTLENQHLKISLSNHGGELHSIKGKKDNTEFLWSGDEAYWKYHAPILFPIVGKVFNGKYTVDGITYELPQHGLARVRDFEMIEQTKNSISFELKYSEDTLKVYPFKFSLIIKYTLNDINLSIDYIVKNLDNKEMYFSIGAHPAFMCPIENDKFDDYYFEFNKKENASIMQLVGPGYFSKEEKPYLKDEHIINLSTDLFKNDALVFKNLKSNKISLKSKNHKKYLEFDFGEFPYLGLWTKDTGAPFVCIEPWFGHADFDGFNGEFKDKAAIQSLMPNKEFHCNYNISFFELEHHHHHH”, the entry is “soluble”; as for “MKALARFGKAFGGYKMIDVPQPMCGPEDVVIEIKAAAICGADMKHYNVDSGSDEFNSIRGHEFAGCIAQVGEKVKDWKVGQRVVSDNSGHVCGVCPACEQGDFLCCTEKVNLGLDNNTWGGGFSKYCLVPGEILKIHRHALWEIPDGVDYEDAAVLDPICNAYKSIAQQSKFLPGQDVVVIGTGPLGLFSVQMARIMGAVNIVVVGLQEDVAVRFPVAKELGATAVVNGSTEDVVARCQQICGKDNLGLVIECSGANIALKQAIEMLRPNGEVVRVGMGFKPLDFSINDITAWNKSIIGHMAYDSTSWRNAIRLLASGAIKVKPMITHRIGLSQWREGFDAMVDKTAIKVIMTYDFDE”, “soluble”; as for “MKAMKSLGADLDKALGRLSGGLYIITAKKGDVSSAMLASWVNQASFKPLGFSIAVAKDRAIESLMQVGDRFVLNVLEEGNYQPLMRHFLKRFAPGADRFEGVKTQPAENGAPILGDALAYMECEVVSRMDCGDHWAVYSTVYAGRVSKSEALTAVHHRKVGNHYLEHHHHHH”, “soluble”.

For the sequence “MKAQIIHSFGDSSVFQLEEVSKPKLLPGHVLIDVKATSVNPIDTKMRSGAVSAVAPEFPAILHGDVAGIVIEVGEGVSKFKCGDEVYGCAGGFKETGGALAEFMLADARLIAHKPNNITMEEAAALPLVAITAWESLFDRANIKSGQNVLIHGATGGVGHVAIQLAKWAGANVFTTASQQNKMEIAHRLGADVAINYKEESVQESVQEYVQKHTNGNGFEVIFDTVGGKNLDNSFEAAAVNGTVVTIAARSTHDLSPLHAKGLSLHVTFMALKILHTDKRNDCGEILTKITKIVEEGKLRPLLDSKSFTFDEVAQAHEYLESNKAIGKIVLKNVW”, the “soluble on expression in E. coli” value is recorded as “soluble”. As for “MKARKRKEQTFHEYFKEWVDLYKVGAIRSITLQKYYVTEQKIQELVPDLKIKDLDRYTYQQLLNSYAVTHEKQTTMDFHHHLKGAILDAVDEGVISQNPTRKIVIKGKTPRPKKAKFLNQFEVQALLKELNLKEDINWDWFILLIIKTGLRFSEALALTPSDFDFSKQKIIINKTWDYKMVTGSFQPTKNESSNRKIQIDWQLAMQFSQLIKMKDPDKPIFVKSRVFNSTINNRLKVLCENANIPTITVHSLRHTHASLLLFAGVSIASVANRLGHSSMTTTQETYLHIIQELENQDNDKIIRHLSMLM”, the “soluble on expression in E. coli” value is reported as “not soluble”. Take “MKATSEELAIFVSVVESGSFSRAAEQLGQANSAVSRAVKKLEMKLGVSLLNRTTRQLSLTEEGERYFRRVQSILQEMAAAESEIMETRNTPRGLLRIDAATPVVLHFLMPLIKPFRERYPEVTLSLVSSETIINLIERKVDVAIRAGTLTDSSLRARPLFNSYRKIIASPDYISRYGKPETIDDLKQHVCLGFTEPASLNTWPIACSDGQLHEVKYGLSSNSGETLKQLCLSGNGIACLSDYMIDKEIARGELVELMADKVLPVEMPFSAVYYSDRAVSTRIRAFIDFLSEHVKTAPGGVMPIS”: the “soluble on expression in E. coli” value is on record as “not soluble”. “MKAYKLLTTASIGALMLGMSTAAYSDNWRYAHEEYEGDVQDVFAQAFKGYVEDNSDHTVQVYRFGELGESDDIMEQTQNGILQFVNQSPGFTGSLIPSAQIFFIPYLMPTDMDTVLEFFDESKAINEMFPKLYAEHGLELLKMYPEGEMVVTADEPITSPEDFDNKKIRTMTNPLLAETYKAFGATPTPLPWGEVYGGLQTGIIDGQENPIFWIESGGLYEVSPNLTFTSHGWFTTAMMANQDFYEGLSEEDQQLVQDAADAAYDHTIEHIKGLSEESLEKIKAASDEVTVTRLNDEQIQAFKERAPQVEEKFIEMTGEQGQELLDQFKADLKAVQSESEG”: the “soluble on expression in E. coli” value is given as “soluble”. For the sequence “MKDTLMSIQIIPKTPNNDNVIPYVDEAIKIIDESGMHFRVGPLETTVQGNMNECLILIQSLNERMVELECPSIISQVKFYHVPDGITIETLTEKYDELEHHHHHH”, the “soluble on expression in E. coli” value is reported as “soluble”. “MKECKKCKSNEYTNKQLVMMINECGHPLCKNCVDNIFALNSGNCHVCNRVLRKNNFREQIYEDPLIDKETFLRRKLRKIYNLKQDDFENLREFGDYQERFETVVYNLVFETNVNETNAEIQAFEEKHKEQIDRNKRRLDDDQKWIEDQLREERAMKARMTDHMEMDAKEQEAASAVTDTRKIMDELRDSNVAAEVILDRERKKQIEKELEEKEEQEKRKRRNKEMLQTRKRAAENMSFNTVIRVAGRAYVHQPLELVINGPPMPNVSEIEALGYLAHIRQPTAEYIAGGYTPMLGCSRALFEARIDLFSF”: the “soluble on expression in E. coli” value was “not soluble”. Turning to “MKEDKKVLHVANMTNGLIVYPDYDYIVYFPSSYTAAGTPLYFPEFAVPIDLIKALLEEKKVIMYDATVHENKELTDAFLKGVPTFLMALNRAIHGTKGLFEKLEKGYKVCPWQTPDIVQHAVYRLPKHYYKFLKKCVKLFAPEKRGKLWISIPENVELVVEKIDRRLNDNYEEIAKMIKEKKSIHTYRV”, the “soluble on expression in E. coli” value is reported as “not soluble”.
